This experiment addresses T1, PHD domain of human MLL5 (Ser109-Asp188) (human, UniProt Q8IZD2 109-188, 15N-labelled in the NMR titration).
T1 construct: Mixed Lineage Leukemia 5 (MLL5), human, PHD finger, residues 109-188, 80 residues; Cloned into the vector pET28a-MHL (GenBank EF456735 is the vector's id); The tag is detected with anti-His in the peptide array; also called MLL5PHD; MLL5 PHD finger; source: E. coli BL21 (DE3) Codon plus RIL, purified (Ni column, Superdex200, Source 30Q; for NMR 13C/15N-labelled from minimal media, Ni-NTA)
T1 sequence (looked up): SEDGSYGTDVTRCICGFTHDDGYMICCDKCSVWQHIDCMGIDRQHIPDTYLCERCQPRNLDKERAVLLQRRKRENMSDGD
In words: fluorescence polarisation; 40 nM fluorescein-labelled peptide, MLL5PHD titrated (low to high micromolar); 20 mM Tris-HCl pH 7.5, 50 mM NaCl, 0.01% Triton X-100; 384-well plates. The conditions noted are these: both partners purified.

Where no end group is shown, it is not given here. Me3 = trimethyl-lysine; Me2 = dimethyl-lysine

B1: H3K4me3 peptide labelled with fluorescein (peptide)
chain: ARTK(Me3)QTARKSTGGKA
modifications: not fully specified (N-terminus); also: fluorescein label, C- or N-terminal (sources disagree)
Turning to B1, the Kd is ~16 µM.

B2: H3K4me2 peptide labelled with fluorescein (peptide)
chain: ARTK(Me2)QTARKSTGGKA
modifications: not fully specified (N-terminus); also: fluorescein label, C- or N-terminal (sources disagree)
As to B2, the Kd was ~16 µM.
